Measurements from US20220409745, “COMPOSITIONS AND METHODS OF USING ENGINEERED FUSION PROTEINS THAT BIND G4C2 HUMAN REPEATS” (The Regents of the University of California, published 2022).

Experiments:
ZFP106 Znf1 (Z1) [1] = molecular target: T1, ZFP106 Znf1 (Z1) (Homo sapiens, UniProt Q9H2Y7 SEQ:1-25); assay: EMSA; binds G-q structure; conditions: G4
ZFP106 Znf1 (Z1) [2] = molecular target: T1, ZFP106 Znf1 (Z1); assay: EMSA; binds non-G-q structure; conditions: non-G4

T1 sequence (Q9H2Y7 20-44): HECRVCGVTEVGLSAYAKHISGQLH

Binder	binding result (ZFP106 Znf1 (Z1) [1])	binding result (ZFP106 Znf1 (Z1) [2])
GGGGCCGGGGCCGGGGCCGGGGCCGGGGCCGGGGCCGGGGCCGGGGCC (ssRNA) [(G4C2)8 RNA G-quadruplex]	binds	
GGGGCCGGGGCCGGGGCCGGGGCCGGGGCCGGGGCCGGGGCCGGGGCC (ssRNA) [(G4C2)8 RNA non-G-quadruplex]		binds
